Measurements taken from US20180017550A1.

Biological target: human APC mutation cluster region fragment (codons 1,294-1,369) with N-terminal VSV tag, 4 glycine s (human) (UniProt P25054)
Sequence (P25054 other isoform, or with tags, fused parts or gaps limits assumed): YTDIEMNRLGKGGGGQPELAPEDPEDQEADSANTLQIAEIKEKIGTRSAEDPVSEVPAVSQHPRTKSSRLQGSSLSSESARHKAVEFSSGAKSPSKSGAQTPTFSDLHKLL

anti-VSV antibody conjugated to the Cy3 fluorophore (clone P5D4; Sigma-Aldrich, St. Louis, Mo.)
signal to noise ratio: 179 :1
